Laboratory results: the nanobody polyreactivity screen of Harvey et al. (2022)

assay: yeast display, Sf9 membrane polyspecificity reagent, FACS + sequencing; frameworks hold sequencing errors
Method in brief: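 Nanobodies came from a synthetic yeast display library in Saccharomyces cerevisiae BJ5465, induced with galactose for 36–48 hours and stained for 1 hour at 4 °C with 10% biotinylated, detergent-solubilized Sf9 membrane reagent. Cells were enriched on streptavidin microbeads and then FACS-sorted, with low and high (top ~1%) gates set on anti-HA fluorescence for expression and streptavidin fluorescence for reagent binding. Each polyreactivity label reflects the gate a clone came from. Genes were amplified by colony PCR, sequenced by MiSeq 2 × 250 and filtered by CDR length.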

Sequence	polyreactivity (PSR sort gate)
QVQLQESGGGLVQAGGSLRLSCSATGTIFTDRFMGWYRQAPGKERELVAGISPGTSTNYADSVKGRFTISRDNAKNTVYLQMNSLKPEDTAVYYCAADWSTGNTLPYWGQGTQVTVSS	high polyreactivity
QVQLVESGGGLVQAGGSLSLSCAASGNTLYNYPMGSYRPAPGKERELVAAISLSGGSTYYADSVKGRFTISRDNAKNTVYLQMNSLKRVDTAVYYCDADIFYYSSSYGYWGQGTQVTVSS	low polyreactivity
QVQLVESGGGLVQAGGSLRLSCAASGRTSVRYAMGWYRQAPGKERELVAAISWSGGSTYYADSVKGRFTISRDNAKNTVYLQMNSLKPEDTAVYYCAAERGPTNHTSYPWYEYDYWGQGTQVTVSS	low polyreactivity
QVQLVESGGGLVQAGGSLRLSCAASGRIFYYYAMGWYRQAPGKERELVAAITWNGTSTYYADSVKGRFTISRDNAKNTVYLQMNSLKPEDTAVYYCAAEGWVGAWWYVLDVRYDYWGQGTQVTVSS	low polyreactivity
QVQLVESGGGLVQAGGSLRLSCAASGRTFVNYTMGWDRQAPGKERELVAAIRYRDGSTYYADSVKGRFTISRDNAKNTVYLQMNSLKPEDTAVYYCNTRITQVGDYIYDYWGQGTQVTVSS	low polyreactivity
QVQLVASGGGLVQAGGSLRLSCAASGSTFRVNVMGWYRQAPGIERELVADITTSGGSTYYADSVKGRFTISRDNAMITVYLQINSLTPEDTAVYYCNTTYQSGWGPDMDYWGQGTQVTVSS	low polyreactivity
QVQLVESGGGLVQAGGSLRLSCAASGFTFYNYAMGWYRQAPGKERELVAAISYSGGSTYYADSVKGRFTISRDNAKNTVYLQMNSLKPEDTAVYYCAVVWWIQYVPGSYHAGYYWGQGTQVTVSS	high polyreactivity
QVQLVESGGGLVQAGGSLRLSCAASGITSTVYAMGWYRQAPGKERELVAGISWSTSSTYYADSVKGRFTISRDNAKNTVYVQMNSLKPEDTAVYYCAKAGAYKYGYWGQGTQVTVSS	high polyreactivity
QVQLVDSGGGLVQAGGSLRLTCAASGSTIYKNTMGWDRQGPGKERELVAAITRGGSTYYADSVKGRVTISRDNAKNTVYLQMNSLKPEDTAVYYCNTLTRHRYGYDYWGQGTQVTVSS	high polyreactivity
QVQRVESCGGLVQAGGSLRLSCAASGSIFTQYTMGWYRQEPAKERELVAAISRSGGRTYYADSVKGRFTISRDNAKNTVYLQMNSLKPEDTAVYYCATRALYWRYGYDYWGQGTQVTVSS	high polyreactivity
QVQLVESGGGLVQAGGSLRLSCAASGRIIVPYGMGWYRQAPGKERELVAAITTGGSTNYADSVKGRFTISRDNAKNTVYLQMNSLKPEDTAVYYCAVDWYPQLIYSFNSELEYWGQGTQVTVSS	low polyreactivity
QVQLVESGGGLVQAGGSLRLSCAASGSTFYSYAMGWYRQAPGKERELVAAIDWSGTSTYYADSVKGRFTISRDNAKNTVYLQMNSLKPEDTAVYYCAARYTRGGSGPDYNYWGQGTQVTVSS	high polyreactivity
QVQLVESGGGLVQAGGSLRLSCAASGRTFRYYAMGWYRQAPGKESELVAAIRTRGASTYYADSVKGRFTISRDNAKNTVYLQMNSLKPEDTAVYYCAKRAHFSSARHVYYIYDYWGQGTQVTVSS	low polyreactivity
QDQLVDSGGGLVQAGGNLRLSCAASGRTFPPYSMGWDRQAPGKERELVAAISGSGASTYYADSEKGRFTISRDNAKNTVYLQMNCLKPEDSAVYYCARYRGYWGRYYGVDYGYWGQGTQVTVSS	high polyreactivity
QVQLVESGGGLVQAGGSLRLSCAASGRTLRRYAMGWYRQAPGKERELVADISWRGTSTNYADSVKGRFTISRDNAKNTVYLQMNSLKPEDTAVYYCAAKQTYTRLHYLGPSVWDNYDYWGQGTQVTVSS	high polyreactivity
QVQLVESCGGLVQAGGSLRLSCAASGSTYAMGWYRQAPGKERELVASITSRGGSTYYADSVKGRFTISRDNAKNTVYLQMNSLKPEDTAVYYCNRVYRYPYNYWGQGTQVTVSS	high polyreactivity
QVQLVESGGGLVQAGGSLRLSCAASGRIFGLYAMGWYRQAPGKERELVAAITLSGDGTDYADSVKGRFTISRDNAKNTVYLQMNSLKPEDTPVYYCAKVGQYWWNMDYWGQGTQVTVSS	low polyreactivity
QVQLVESGGGLVQAGGSLRLSCAASGSIFVYNAMGWYRQAPGKERELVAAISSSGGSTYYADSVKGRFTISRDNAKNTVYLQMNSLKPEDTAVYYCAAEAVRKVPSYYSYAYYYWGQGTQVTVSS	high polyreactivity
QVQLVESGGGLVQAGGSLRLSCAASGSIFYFNAMGWYRQAPGKERELVADISWSGGESTYYADSVKGRFTISRDNAKNTVYLQMNSLKPEYTAVYYCAADYWSPYVYVYWGQGTQVTLSS	low polyreactivity
QVQLVESGGGLVQAGGSLRLSCAASGIIFEYYAMGWSRPAPGKERQLVAAISSSGGSTYYADSVKVRFTISRDNAKNTVYLQMNSLKPEDTAVYYCATRYAASTSRWQYYYWGQGTQVTVSS	high polyreactivity
QVQLVESGGGLDQAGGSLRLSCAASGSIFSYYAMGWYRQAPGKERELVAAITIRGGRTYYADSVKGRFTISRDNAKNTVYLQMNSLKPEDTAVYYCAADWLNSDPYNYWGQGTQVTVSS	low polyreactivity
QVQLVETGGGLVQAGGSLRLSCAPSGLSIGYYAMGWYRQAPGKEREFVAAITWNGGSTYADSVKGLFTISRDNAKNTVYLQMNSLKPEDTAVYYCAADLSYWDDFDYWGQGTQVTVSS	low polyreactivity

Sequence	polyreactivity (PSR sort gate)
QVQLVESGGGLVHAGGSLRLSCAAYGFIFYDYVMGWYRQAPGKERELVAAITGSGGGTYYADSVKGRFTISRDNAKNTVYLQMNSLKPDATAVYYCAADFISVYGYEYYYWGQVTQVTVSS	high polyreactivity
QVQLVESGGGLVQAGGSLRLSCAASGIIFYGKAMGWYRQAPGKERELVAAITWSGGSTYYADSVKGRFTISRDNAKNTVYLQMNRLKPEDTAVYYCAALSGAHEHFVEYDYWGQGTQVTVSS	low polyreactivity
QVQLVESGGGIVQAGGSLRLSCAASGSTLWGNVMRSYRQAPGKERELVAVISKTGGSTYYADSVKGRFTISRDNAKNTVYLQMNSLKPEDSAVYYCATRWPYRSDWGLGTQVTVSS	high polyreactivity
QVQLVESGGGLVQAGGSLRLSCAASGRIFTIYAMGWYRQAPGKERELVATISSNVGSTYYADSVKGRFTISRDNAKNTVYLQMNSLKPEDTAVYYCAATRRAGFTTAKFDYWGQGTQVTVSS	high polyreactivity
QVQLVESGGGLVQAGGSLRLSCAASGRIFVYNTMGWYRQAPGKERELVAVISIGGSTKYADSVKGRFTISRDNAKNTVYLQMNSLKPEDTAVYYCNTDLAGLVYIAVDYWGQGTQVTVSS	low polyreactivity
QVQLVESGGGLVQAGGSLRLSCAASGRIFPVYAMGWYRQAPGKERELVAAITSGVSTNYADSVKGRFTISRDNAKYTVYLQMNSLKPEDTAVYYCNKDYTTYPYYEYGYWGQGTQVTVSS	low polyreactivity
QVQLVESGGGLVQAGGSLRLSCAASGSTFHLYAMGWYRQAPGKEREIVAAIRGRGGNTYADSVKGRFTISRDNAKNTVYLQMNSLKPEDTAVYYCAAPLLRDLRSPYSYNYWGQGTQVTVSS	low polyreactivity
QVQLVESGGGLVQAGGSLRLSCAASGRTFRWYAMGWYRQAPGKERELVAAINPGGSTNYADSVKGRFTISRDNAKNSVYLQMNSLKPEDTAVYYCNAAGYDALTHNYYWGQGTQVTVSS	low polyreactivity
QVQLVESVGGLVQAGGSLRLSCAASGFTFARYAMGWYIQAPGKERELVAAISISGGRTYYADSVKGRFTISRDNAKNTVYLQMNSLKPEDTAVYYCNKGHVPSYDYNYWGQGTQVTVSS	high polyreactivity
QVQLVESGGGLVQAGGSLRLSCAASGLTFDYYAMGWYRQAPGKERELVAAITSSGGRTYYADSVKGRFTISRDNPNKTVYLQMNSLKPEDTAVYYCAADPYSVYGGDYWGQGTQVTVSS	low polyreactivity
QVQLVESGGGLVQAGGSLRLICAASGSIFDYYDMGWYRQAPGKERELVAANNWSGGITYYADSVKGRFTISRDYAKNTVYLQMNSLKPEDTEVYFCAADWYQWVYSSSITSFDYWGQGTQVTVSS	low polyreactivity
QDQLVEAGGGLVQAGGSLRKSCAASGRIFNTNAMGWNRQAPGKERELVAGITDSGDSTYYADSVKGRFTISRDNAKNTVYLQMNRLKPEDSAVYYCATDPASPYIYDFWGQGTQVTVSS	low polyreactivity
QVQLVESGGGLVQAGGSLRLSCAASGRIFWVYAMGWYRQAPGKERELVAAISTRGGSTYYADSVKGRFTISRDNAKNRVYLQKNRLKPDDTAVYYCAADYDDKYDYWGQGTQVTVSS	low polyreactivity
QVQLVESGGGLVQAGGTISLSCAASGRTYRNNAMGWYRQAPGKEMELVAAISRTGGRTYYADSVKGRFTISRDNAKNPVYLQMNSLKPEDSAVYYCNAAYLVREYDYWGQGTQVTVSS	high polyreactivity
QVQLVESGGGLVQAGGSLRLSCAASGSTFYPYAMGWYRQAPGKEREFVAGISRSGGTTYYADSLKGRFTISRDNAKNTVYLQMNSLKPEDTAVYYCAVQIPYVYWSYDYWGQGTEVTVSS	low polyreactivity
QVQLVESGGGLVQAGGSLRLSCAASGFTFTFNAMGWYRQAPGKERELVAGITSGTSTNYADSVKGRFTISRDNAKNTVYLQMNSLKPEDTAVYYCAADLYLTSGSQGVYVRYDYWGQGTQVTVSS	low polyreactivity
QVQLVESGGGLVQAGGSLRLSCAACGSIFYWNAMVWYRQAPGKERELVAAINSGDSTNYADSVKGRFTISRDNAKNTVYFQMNSLKPEDTAVYYCAASIYAALNGGPGYDYWGLGTQVTVSS	low polyreactivity
QVQLVESGGGLVQAGGSLRLSCAASGRIFGLNAMGWYRQAPGKERELVAAISERDGSTYYADSVKGRFTISRDNAKNTVYLQMNSLKPEDTAVYYCAAEKPVHYVRGVHYDYWGQGTQVTVSS	low polyreactivity
QVQLVESGGGLVQAGGSLRLSCAASGFIVRRYAMGWYRQAPGKERELVAAITSSGTSTYYADSVKGRFTISRDTAKYTVYLQMNSLKPEDTAVYYCAAVYQYTHYYSNYRYWGQGTQVTVSS	high polyreactivity
QVQLVESGGGLVQAGGSLRLSCPASGSTFWYYDMGWSRQAPGKERELVAAISGSGGRTYYADSVKGRFTISRDNAKNTVYLQMNSLKPEDTAVYYCAADYYWSADFKYNDWGQGTQVTVAS	low polyreactivity
QVQLVESGGGLVQAGGSLGLSCAASGRSLIWYAMGWYRQAPGKERELVAAITSGGRTYYADSVKGRFTISRDNAKKTVYLQMNSLKPEDTAVYYCNKVGRDPGRDFWGQGTQVPVSS	high polyreactivity
